Measured values from patent publication US20260166139A1 (AKESO BIOPHARMA, published 2026).
Where “and” joins values, the source holds several entries; their conditions need not be identical. Equal entries are not always repeated.

T1: CTLA4 antigen on the surface of 293F-CTLA4 host cells (UniProt P16410 36-223, limits assumed)
T1 construct: whole, on cells
T1 sequence (looked up): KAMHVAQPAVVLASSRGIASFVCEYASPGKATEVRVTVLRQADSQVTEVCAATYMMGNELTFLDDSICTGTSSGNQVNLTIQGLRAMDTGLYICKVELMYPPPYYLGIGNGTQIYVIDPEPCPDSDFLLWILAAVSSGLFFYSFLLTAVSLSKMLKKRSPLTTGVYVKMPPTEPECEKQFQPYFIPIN

T2: human CTLA4 (human, UniProt P16410 36-161, limits assumed)
T2 construct: also called human CTLA4 antigen; CTLA4 protein
T2 sequence (looked up): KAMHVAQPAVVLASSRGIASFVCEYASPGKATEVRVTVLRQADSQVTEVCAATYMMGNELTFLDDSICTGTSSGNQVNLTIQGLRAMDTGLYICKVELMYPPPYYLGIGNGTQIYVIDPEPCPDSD

T3: CTLA4 antigen (NCBI Gene ID: 1493) obtained by TEV protease cleavage of CTLA4-mFc (Homo sapiens (Human), UniProt P16410 37-161)
T3 construct: also called the antigen CTLA4
T3 sequence: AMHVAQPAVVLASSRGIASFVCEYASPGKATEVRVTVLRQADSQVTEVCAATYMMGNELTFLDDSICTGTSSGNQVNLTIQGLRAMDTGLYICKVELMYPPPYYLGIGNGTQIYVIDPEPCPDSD


What was measured:
[1] = biological target: T1, CTLA4 antigen on the surface of …; test: flow cytometry, 293F-CTLA4 cells
Method: (§1) After addition of 300 μL PBS, the fluorescent signal was detected using the FITC channel on the flow cytometer.

human CTLA4 [2] = biological target: T2, human CTLA4; test: ELISA on coated CTLA4, source Human
Method: (§2) The ELISA plate was coated with CTLA4 at 4° C. over night. […] The enzyme conjugated secondary antibody was added for incubation for 30 min. Then, the absorbance at 450 nm was determined on an ELISA plate reader.

monkey CTLA4-hFc [3] = biological target: T4, monkey CTLA4-hFc (monkey); test: ELISA on coated CTLA4, source Monkey
T4 construct: also called monkey CTLA4 antigen
Method: as §2

[4] = biological target: T1, CTLA4 antigen on the surface of …; test: flow cytometry, 293F-CTLA4 cells; antibody 1 nM
Method: as §1

[5] = biological target: T1, CTLA4 antigen on the surface of …; test: flow cytometry, 293F-CTLA4 cells; antibody 5 nM
Method: as §1

[6] = biological target: T1, CTLA4 antigen on the surface of …; test: flow cytometry, 293F-CTLA4 cells; antibody 10 nM
Method: as §1

[7] = biological target: T1, CTLA4 antigen on the surface of …; test: flow cytometry, 293F-CTLA4 cells; antibody 25 nM
Method: as §1

[8] = biological target: T1, CTLA4 antigen on the surface of …; test: flow cytometry, 293F-CTLA4 cells; antibody 0.1 nM
Method: as §1

[9] = biological target: T1, CTLA4 antigen on the surface of …; test: flow cytometry, 293F-CTLA4 cells; antibody 0.01 nM
Method: as §1

[10] = biological target: T1, CTLA4 antigen on the surface of …; test: flow cytometry, 293F-CTLA4 cells; antibody 0.001 nM
Method: as §1

[11] = biological target: T3, CTLA4 antigen (NCBI Gene ID: 1493) …; test: BLI (Fortebio), antibody on AR2G sensor, CTLA4 in solution
Method: 2. […] After equilibration in PBST, the CTLA4 antigen was added for binding. […] Dissociation occurred in PBST.

monkey CTLA4-hFc [12] = biological target: T4, monkey CTLA4-hFc; test: ELISA, coat monkey CTLA4-hFc 0.25 ug/ml; antibody 0 (blank)
Method: as §2

human CTLA4 [13] = biological target: T2, human CTLA4; test: ELISA, coat human CTLA4 0.5 ug/ml; antibody 0 (blank)
Method: as §2

CTLA4-mFc [14] = biological target: T5, CTLA4-mFc; test: competitive ELISA, competitor B7-2; control run with 8D2
T5 construct: also called CTLA4ECD-mFc fusion protein; CTLA4 antigen

CTLA4-mFc [15] = biological target: T5, CTLA4-mFc; test: competitive ELISA, competitor B7-1; control run with 8D2H1L1
CTLA4-mFc [16] = biological target: T5, CTLA4-mFc; test: competitive ELISA, competitor B7-1; control run with 8D2H2L2
CTLA4-mFc [17] = biological target: T5, CTLA4-mFc; test: competitive ELISA, competitor B7-1; control run with 8D2H3L3
CTLA4-mFc [18] = biological target: T5, CTLA4-mFc; test: competitive ELISA, competitor B7-2; control run with 8D2(Re)
CTLA4-mFc [19] = biological target: T5, CTLA4-mFc; test: competitive ELISA, competitor B7-2; control run with 8D2H1L1
CTLA4-mFc [20] = biological target: T5, CTLA4-mFc; test: competitive ELISA, competitor B7-2; control run with 8D2H2L2
CTLA4-mFc [21] = biological target: T5, CTLA4-mFc; test: competitive ELISA, competitor B7-2; control run with 8D2H3L3
CTLA4-mFc [22] = biological target: T5, CTLA4-mFc; test: competitive ELISA, competitor B7-1; control run with 8D2H2L15
CTLA4-mFc [23] = biological target: T5, CTLA4-mFc; test: competitive ELISA, competitor B7-1; control run with 8D2H2L17
CTLA4-mFc [24] = biological target: T5, CTLA4-mFc; test: competitive ELISA, competitor B7-2; control run with 8D2H2L15
CTLA4-mFc [25] = biological target: T5, CTLA4-mFc; test: competitive ELISA, competitor B7-2; control run with 8D2H2L17
CTLA4-mFc [26] = biological target: T5, CTLA4-mFc; test: competitive ELISA, CTLA4-mFc coated, competitor B7/2-His; antibody 1 µg/ml
Method: (§3) After incubation at 37° C. for 40 minutes, the enzyme conjugated secondary antibody was added. After incubation at 37° C. for 30 minutes, the absorbance at 450 nm was detected on an ELISA plate reader.

CTLA4-mFc [27] = biological target: T5, CTLA4-mFc; test: competitive ELISA, CTLA4-mFc coated, competitor B7/2-His; antibody 1 µg/ml diluted 1:3
Method: as §3

CTLA4-mFc [28] = biological target: T5, CTLA4-mFc; test: competitive ELISA, competitor B7-1
Method: as §3
Target sequence in this assay (chain, as listed by the source limits assumed): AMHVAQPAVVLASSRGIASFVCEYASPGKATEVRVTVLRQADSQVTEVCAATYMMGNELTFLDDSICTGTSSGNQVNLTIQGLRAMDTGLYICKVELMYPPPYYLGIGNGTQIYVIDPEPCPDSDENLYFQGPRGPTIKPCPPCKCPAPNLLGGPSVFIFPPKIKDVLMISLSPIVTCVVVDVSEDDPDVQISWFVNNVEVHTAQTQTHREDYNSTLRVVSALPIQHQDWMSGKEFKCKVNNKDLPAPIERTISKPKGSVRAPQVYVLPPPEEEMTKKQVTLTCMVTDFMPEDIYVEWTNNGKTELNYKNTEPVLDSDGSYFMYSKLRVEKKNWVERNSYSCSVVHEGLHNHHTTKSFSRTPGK

CTLA4-mFc [29] = biological target: T5, CTLA4-mFc; test: competitive ELISA, competitor B7-2
Method: as §3
Target sequence in this assay (chain, as listed by the source limits assumed): as above

CTLA4-mFc [30] = biological target: T5, CTLA4-mFc; test: competitive ELISA, B7/1-hFc coated (competitor), CTLA4-mFc added; antibody 5 µg/ml
Method: as §3

CTLA4-mFc [31] = biological target: T5, CTLA4-mFc; test: competitive ELISA, CTLA4-mFc coated, competitor B7/2-His; antibody 1 µg/ml diluted 1:81
Method: as §3

CTLA4-mFc [32] = biological target: T5, CTLA4-mFc; test: competitive ELISA, B7/1-hFc coated (competitor), CTLA4-mFc added; antibody 5 µg/ml diluted 1:3
Method: as §3

CTLA4-mFc [33] = biological target: T5, CTLA4-mFc; test: competitive ELISA, B7/1-hFc coated (competitor), CTLA4-mFc added; antibody 0 (no antibody)
Method: as §3

CTLA4-mFc [34] = biological target: T5, CTLA4-mFc; test: competitive ELISA, B7/1-hFc coated (competitor), CTLA4-mFc added; antibody 5 µg/ml diluted 1:9
Method: as §3

CTLA4-mFc [35] = biological target: T5, CTLA4-mFc; test: competitive ELISA, CTLA4-mFc coated, competitor B7/2-His; antibody 3 µg/ml diluted 1:27
Method: as §3

Binder	EC50 [1]	fluorescence intensity [4]	fluorescence intensity [5]	fluorescence intensity [6]	fluorescence intensity [7]	fluorescence intensity [8]	fluorescence intensity [9]	fluorescence intensity [10]	Kd [11]	koff [11]	kon [11]	absorbance at 450 nm (CTLA4-mFc [26])	absorbance at 450 nm (CTLA4-mFc [27])	EC50 (CTLA4-mFc [28])	EC50 (CTLA4-mFc [29])	other results
humanized antibody 8D2H2L2 (antibody, V domains shown, also called 8D2H2L2(20150327); 8D2H2L2(20140422)) VH: EVQLVESGGGLVQPGGSMRLSCAASGFTFSDNWMNWVRQAPGKGLEWLAQIRNKPYNYETYYSASVKGRFTISRDDSKNSVYLQMNSLKTEDTGVYYCTAQFAYWGQGTLVTVSS VL: DIQMTQSPSSLSASVGDRVTITCRTSENIYGGLNWYQRKPGKSPKLLIYGATNLASGVSSRFSGSGSGTDYTLTISSLQPEDVATYYCQNVLRSPFTFGSGTKLEIK	4.37 nM	625	972	1160	1130	124	32.5	10.8	0.955 nM	0.000388 s⁻¹	407000 M⁻¹ s⁻¹	–	–	–	–	EC50 (human CTLA4 [2]): 0.12 nM and 0.082 nM and 0.118 nM; EC50 (monkey CTLA4-hFc [3]): 0.227 nM; absorbance at 450 nm (monkey CTLA4-hFc [12]): 0.048
humanized antibody 8D2H1L1 (antibody, V domains shown) VH: EVQLVESGGGLVQPGGSMRLSCAASGFTFSDNWMNWVRQAPGKGLEWLAQIRNKPYNYETYYSDSVKGRFTISRDDSKNSVYLQMNSLKTEDTGVYYCTAQFAYWGQGTLVTVSS VL: DIQMTQSPSSLSASVGDRVTITCRTSENIYGGLNWYQRKQGKSPKLLIYGATNLASGMSSRFSGSGSGTDYTLKISSLHPDDVATYYCQNVLRSPFTFGSGTKLEIK	5.06 nM	103	559	944	1170	21.2	10.8	10.8	0.608 nM	0.000207 s⁻¹	340000 M⁻¹ s⁻¹	–	–	–	–	absorbance at 450 nm (human CTLA4 [13]): 0.067
control antibody 10D1 (antibody, V domains shown) VH: QVQLVESGGGVVQPGRSLRLSCAASGFTFSSYTMHWVRQAPGKGLEWVTFISYDGNNKYYADSVKGRFTISRDNSKNTLYLQMNSLRAEDTAIYYCARTGWLGPFDYWGQGTLVTVSS VL: not shown	–	–	–	–	–	–	–	–	–	–	–	0.05	0.07	–	–	EC50 (CTLA4-mFc [14]): 0.464 nM; EC50 (CTLA4-mFc [15]): 1.91 nM; EC50 (CTLA4-mFc [16]): 5.15 nM; EC50 (CTLA4-mFc [17]): 5.15 nM; EC50 (CTLA4-mFc [18]): 0.464 nM; EC50 (CTLA4-mFc [19]): 0.464 nM; EC50 (CTLA4-mFc [20]): 2.06 nM; EC50 (CTLA4-mFc [21]): 2.06 nM; EC50 (CTLA4-mFc [22]): 4.59 nM; EC50 (CTLA4-mFc [23]): 4.59 nM; EC50 (CTLA4-mFc [24]): 0.629 nM; EC50 (CTLA4-mFc [25]): 0.629 nM
humanized antibody 8D2H2L15 (antibody, V domains shown) VH: EVQLVESGGGLVQPGGSMRLSCAASGFTFSDNWMNWVRQAPGKGLEWLAQIRNKPYNYETYYSASVKGRFTISRDDSKNSVYLQMNSLKTEDTGVYYCTAQFAYWGQGTLVTVSS VL: DIQMTQSPSSLSASVGDRVTITCRTSENIYGGLNWYQRKPGKSPKLLIYGATNLASGVSSRFSGSGSGTDYTLTISSLQPEDVATYYCQNVLSRHPGFGSGTKLEIK	–	–	–	–	–	–	–	–	–	–	–	0.05	0.05	1.97 nM	0.227 nM	absorbance at 450 nm (CTLA4-mFc [30]): 0.07; absorbance at 450 nm (CTLA4-mFc [31]): 0.75; absorbance at 450 nm (CTLA4-mFc [32]): 0.07
humanized antibody 8D2H2L17 (antibody, V domains shown) VH: EVQLVESGGGLVQPGGSMRLSCAASGFTFSDNWMNWVRQAPGKGLEWLAQIRNKPYNYETYYSASVKGRFTISRDDSKNSVYLQMNSLKTEDTGVYYCTAQFAYWGQGTLVTVSS VL: DIQMTQSPSSLSASVGDRVTITCRTSENIYGGLNWYQRKPGKSPKLLIYGATNLASGVSSRFSGSGSGTDYTLTISSLQPEDVATYYCQNVLSSRPGFGSGTKLEIK	–	–	–	–	–	–	–	–	–	–	–	0.05	0.05	1.79 nM	0.296 nM	absorbance at 450 nm (CTLA4-mFc [33]): 1.18; absorbance at 450 nm (CTLA4-mFc [34]): 0.08
monoclonal antibody 8D2 (antibody, V domains shown, Mouse antibody purified from hybridoma supernatant; also called mAb 8D2; antibody secreted by the CTLA4-8D2 hybridoma cell line LT001) VH: EVKLDETGGGLVQPGRPMKLSCVASGFTFSDNWMNWVRQSPEKGLEWLAQIRNKPYNYETYYSDSVKGRFTISRDDSKSSVYLQMNNLRGEDMGIYYCTAQFAYWGQGTLVTVSA VL: DIQMTQSPASLSASVGETVTITCGTSENIYGGLNWYQRKQGKSPQLLIFGATNLADGMSSRFSGSGSGRQYSLKISSLHPDDVATYYCQNVLRSPFTFGSGTKLEI	–	–	–	–	–	–	–	–	–	–	–	–	–	0.44 nM	0.208 nM	absorbance at 450 nm (CTLA4-mFc [35]): 0.675
